From patent publication US9376706B2, “Protease detection” (Mologic Limited, priority 2007, dated 2016)
Square brackets hold non-standard residues; d marks the D form. Ends that are not written are not given here. ANA = 2-amino naphthoic acid; 4Abz = Nc1ccc(C(=O)O)cc1

Legend:
Type in all cases: biochemical
Neutrophil Elastase [1] = molecular target: T1, Neutrophil Elastase (Homo sapiens, UniProt P08246); assay: Plate assay of peptides as elastase substrates with DMAC visualisation; conditions: for result for elastase activity (well colour): 37° C., 30 minutes, pH 7.4; for suitability as elastase substrate: conclusion of Examples 3A and 3B
T1 sequence (P08246 30-267): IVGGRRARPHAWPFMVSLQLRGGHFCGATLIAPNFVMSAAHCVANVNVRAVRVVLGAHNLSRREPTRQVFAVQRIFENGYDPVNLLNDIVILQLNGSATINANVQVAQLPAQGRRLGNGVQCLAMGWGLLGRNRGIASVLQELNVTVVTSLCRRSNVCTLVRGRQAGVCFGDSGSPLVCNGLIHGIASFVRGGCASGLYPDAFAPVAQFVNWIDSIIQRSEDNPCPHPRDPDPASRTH
Description: Two peptides, AAPV-[pABA]-GGC (SEQ ID NO: 3) and AAPV-[ANA]-GGC (SEQ ID NO: 4), were synthesised, wherein pABA is para-amino benzoic acid and ANA is 2-amino naphthoic acid. Both peptides were tested for their suitability as a substrate for the Neutrophil Elastase enzyme. The electrospray mass spectrums of AAPV-[pABA]-GGC (SEQ ID NO: 3) and AAPV-[ANA]-GGC (SEQ ID NO: 4) are shown in FIGS. 10A and 10B respectively.
Varying concentrations of Elastase (5 μl of 18, 9, 6 and 3 units/ml dilutions) were added to 0.5 mg/ml peptide (5 μl) in separate plate wells. The mixtures were diluted with 20 μl of Buffer (50 mM phosphate, 5 mM EDTA; pH 7.4) and incubated at 37° C. for 30 minutes. 15 μl of working DMAC solution (0.3 mg/ml DMAC, 50 mM HCl) was added to each plate well and mixed thoroughly to visualize.

Neutrophil Elastase [2] = molecular target: T1, Neutrophil Elastase; assay: Vertical flow column assay, peptide conjugated to frits, elastase, DMAC development; conditions: column with elastase, flow contact time approx. 30 seconds
Description: Another assay format was used to test for the activity of the enzyme Neutrophil Elastase in the presence of the two peptides, AAPV-[pABA]-GGC (SEQ ID NO: 3) and AAPV-[ANA]-GGC (SEQ ID NO: 4). The C-terminal cysteine group of the peptides was used as a means of conjugation to a solid surface. Sintered polyethylene frits functionalised with iodoacetyl groups were rinsed in 50 mM sodium phosphate, 5 mM EDTA, pH 7.4 for 10 minutes. The frits were then transferred to a solution of 0.5 mg/ml peptide (in PBS) for sensitisation for 30 minutes. The frits were then rinsed once more in phosphate EDTA buffer for 10 minutes. The frits were loaded into empty columns and 200 μl of elastase was added with an approximate flow contact time of 30 seconds. To develop the assay, 100 μl of working DMAC solution (0.3 mg/ml DMAC, 50 mM HCl) was passed through the column.

papain = molecular target: T2, papain (Carica papaya, UniProt P00784); assay: Booklet assay for detection of papain with DMAC visualisation
T2 sequence (P00784 134-345): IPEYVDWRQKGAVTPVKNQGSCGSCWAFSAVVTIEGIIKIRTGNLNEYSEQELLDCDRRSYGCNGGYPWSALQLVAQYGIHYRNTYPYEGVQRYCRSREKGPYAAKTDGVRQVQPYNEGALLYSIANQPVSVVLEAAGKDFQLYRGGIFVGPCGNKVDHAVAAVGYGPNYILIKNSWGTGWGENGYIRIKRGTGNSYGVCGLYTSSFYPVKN
Excerpt: The polypeptides of the present invention are, in some embodiments, incorporated into a product for detecting a protease enzyme in a sample which takes the form of a booklet. A suitable such booklet is disclosed in PCT application No. PCT/GB2007/000643 which is incorporated herein by reference. Referring to FIG. 3 a booklet 1 in accordance with this embodiment will now be described. The booklet comprises first and second sheets 2, 3 of planar substrate such as cardboard, connected by a hinge 4. In the centre of the first sheet there is provided a thin reaction film 25 on top of an absorbent pad 5. The reaction film 25 is impregnated with the chromogenic polypeptide and can be made from PVA. On the centre of the second sheet 3 there is provided an aperture 6 which is aligned with the reaction film 25 and the absorbent pad 5. The aperture 6 is covered by a visualisation film 7, such that the visualisation film 7 lies between the aperture 6 and the reaction film 25 when the first and second sheets 2, 3 are pressed against each other. The visualisation film 7 is impregnated with DMAC and HCl. Optionally, the reaction film 25 and the absorbent pad 5 are covered with a removable film (not shown) prior to use so that the reaction film 25 and the absorbent pad 5 are kept sealed from the environment. […]

result for elastase activity (well colour) (Neutrophil Elastase [1]; all wells with elastase) | result of vertical flow assay (column colour) (Neutrophil Elastase [2]) | result for elastase activity (well colour) (Neutrophil Elastase [1]; final elastase 0.5 units/ml) | result for elastase activity (well colour) (Neutrophil Elastase [1]; final elastase 3, 1.5 or 1 units/ml) | Substance | suitability as elastase substrate (Neutrophil Elastase [1]) | colour change of DMAC in booklet assay (papain; papain sample, 5 min on first sheet, read ten minutes after folding onto DMAC sheet) | rate of colour change compared with BANA (papain; papain, identical conditions, FIG. 7C)
elastase activity was not detected | negative results | – | – | AAPV-[ANA]-GGC (AAPV[ANA]GGC) [chromogenic peptide, ANA is 2-amino naphthoic acid] | poor elastase substrate | – | –
– | positive result | weak positive result | positive result | AAPV-[pABA]-GGC (AAPV[4Abz]GGC) [chromogenic peptide, pABA is para-amino benzoic acid] | significantly more suitable as a substrate for elastase | – | –
– | – | – | – | Val-Arg-[pABA]-Gly (VR[4Abz]G-OH; N-terminus assumed; SMILES CC(C)[C@H](N)C(=O)N[C@@H](CCCNC(=N)N)C(=O)Nc1ccc(C(=O)NCC(=O)O)cc1) [chromogenic polypeptide; pABA is para-amino benzoic acid] | – | changed from yellow to red | faster detectable colour change than BANA
